± gives the standard deviation of the averaged measurements.
Tested on: Saccharomyces cerevisiae
Assay: protein stability index of tFT-peptide fusion (C-terminal peptide) (PSI (0-1 scale)); higher = more stable (slower turnover)
Conditions: temperature: 30 C
Experimental: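 MPS profiling in S. cerevisiae of the yeast C-terminome library: the last 12 aa of each annotated ORF are fused to the C-terminus of a sfGFP-mCherry timer, after a GGGS linker. Cells are FACS-sorted into 8 mCherry/sfGFP bins and deep-sequenced. PSI runs from 0 (unstable) to 1 (stable); wild type and das1Δ backgrounds, two technical replicates each.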

[1] = genetic background: das1 deletion

Sequence | protein stability index [1] | protein stability index (genetic background: wild type)
TASFAGSKKTFD [NSR1 C-terminal 12 aa] | 0.706 ± 0.023 | 0.678 ± 0.012
SFKAYVGLPTTG [PIC2 C-terminal 12 aa] | 0.706 ± 0.01 | 0.693 ± 0.009
KNKKNKKKGKKK [CHS5 C-terminal 12 aa] | 0.694 ± 0.048 | 0.696 ± 0.019
PFALPSNDKVFF [ATO2 C-terminal 12 aa] | 0.698 ± 0.027 | 0.731 ± 0.0052
LQEPDRDNDDSG [NTC20 C-terminal 12 aa] | 0.701 ± 0.013 | 0.7 ± 0.017
FSVCCKDATEVS [YHR070C-A C-terminal 12 aa] | 0.6764 ± 0.0025 | 0.682 ± 0.031
NNTFLDVQAKSN [IMP1 C-terminal 12 aa] | 0.6944 ± 0.0068 | 0.712 ± 0.026
SDGFANNRCQRK [YOR034C-A C-terminal 12 aa] | 0.658 ± 0.0075 | 0.718 ± 0.051
DKLAQRLRALRG [DID2 C-terminal 12 aa] | 0.699 ± 0.01 | 0.684 ± 0.048
YDANSWKQIKSC [PCL5 C-terminal 12 aa] | 0.7002 ± 0.0065 | 0.203 ± 0.016
LKAVCPPEAGFD [VEL1 C-terminal 12 aa] | 0.7312 ± 0.0018 | 0.772 ± 0.019
RSTNGRPQRGYR [YLR326W C-terminal 12 aa] | 0.675 ± 0.027 | 0.664 ± 0.0025
LANFSNEVAMNN [SWP82 C-terminal 12 aa] | 0.696 ± 0.017 | 0.738 ± 0.13
TKGEVATKPASY [MGA1 C-terminal 12 aa] | 0.702 ± 0.014 | 0.703 ± 0.018
EDWSVEELIVDL [RPO26 C-terminal 12 aa] | 0.681 ± 0.009 | 0.71 ± 0.022
DKIDVVLKKISQ [ECM15 C-terminal 12 aa] | 0.7095 ± 0.0048 | 0.683 ± 0.067
MNNLFNPHSHDS [GTA1 C-terminal 12 aa] | 0.7104 ± 0.0014 | 0.722 ± 0.042
SRIKWHVGTAYS [HHY1 C-terminal 12 aa] | 0.6943 ± 0.0031 | 0.6653 ± 0.0066
NSVDWIYSWGKN [MIC12 C-terminal 12 aa] | 0.716 ± 0.03 | 0.74 ± 0.019
CVTQACGRTIKM [YBR141W-A C-terminal 12 aa] | 0.732 ± 0.037 | 0.779 ± 0.13
GAAIAAGVAFLF [YCL048W-A C-terminal 12 aa] | 0.716 ± 0.011 | 0.538 ± 0.021

Sequence | protein stability index [1] | protein stability index (genetic background: wild type)
QNARAAFKSTLV [YDR514C C-terminal 12 aa] | 0.707 ± 0.012 | 0.698 ± 0.044
VGKKLETFKKTN [WBP1 C-terminal 12 aa] | 0.717 ± 0.0088 | 0.48 ± 0.019
PHEAALPKPSFV [EDC2 C-terminal 12 aa] | 0.7069 ± 0.0042 | 0.719 ± 0.038
SPGYKAYLREER [YSF3 C-terminal 12 aa] | 0.722 ± 0.012 | 0.685 ± 0.019
RSKYGAKKPSKS [MRPS12 C-terminal 12 aa] | 0.6815 ± 0.0025 | 0.6855 ± 0.0067
LTEMSAKISFED [AAD10 C-terminal 12 aa] | 0.717 ± 0.019 | 0.779 ± 0.011
QWMNEMVERWAN [SOH1 C-terminal 12 aa] | 0.707 ± 0.0074 | 0.7 ± 0.0099
PVHLQTVGLVDC [PIR5 C-terminal 12 aa] | 0.623 ± 0.032 | 0.672 ± 0.058
RAKTMNRSQSHV [PFK26 C-terminal 12 aa] | 0.697 ± 0.0089 | 0.7255 ± 0.0013
ASFVEVNAEVFL [FRS1 C-terminal 12 aa] | 0.7129 ± 0.0051 | 0.7111 ± 0.0032
DPSKLRRVPVIQ [RGL1 C-terminal 12 aa] | 0.69 ± 0.018 | 0.687 ± 0.066
ALGLAGAVMMLL [SPI1 C-terminal 12 aa] | 0.693 ± 0.013 | 0.746 ± 0.025
VILSETVVILYY [YKR032W C-terminal 12 aa] | 0.346 ± 0.014 | 0.345 ± 0.0067
PSVSRKTPDYFL [PPH21 C-terminal 12 aa] | 0.701 ± 0.053 | 0.7 ± 0.032
NILFVMKEGRIY [YJL213W C-terminal 12 aa] | 0.681 ± 0.016 | 0.711 ± 0.056
KFDIVDQLLSTL [RSM24 C-terminal 12 aa] | 0.7136 ± 0.0037 | 0.684 ± 0.014
VVERTRQAHFAI [YEF1 C-terminal 12 aa] | 0.676 ± 0.023 | 0.6752 ± 0.0036
AVENQFFSQKKK [ACS2 C-terminal 12 aa] | 0.707 ± 0.044 | 0.697 ± 0.034
FFFLLTSLLSPF [LCL1 C-terminal 12 aa] | 0.637 ± 0.029 | 0.592 ± 0.0065
LQPWEGRLYLLK [IMA5 C-terminal 12 aa] | 0.698 ± 0.048 | 0.693 ± 0.063
IAPEVTYRGFIE [RIM9 C-terminal 12 aa] | 0.689 ± 0.027 | 0.685 ± 0.03

Sequence | protein stability index [1] | protein stability index (genetic background: wild type)
QLKLLNALDSVD [YDR537C C-terminal 12 aa] | 0.696 ± 0.011 | 0.757 ± 0.069
YEGPTLTEFEDA [CYB2 C-terminal 12 aa] | 0.6905 ± 0.0043 | 0.703 ± 0.015
DEMQDFLKKHAS [SWI6 C-terminal 12 aa] | 0.7311 ± 0.0031 | 0.643 ± 0.033
LVKCASATIMLN [MIN3 C-terminal 12 aa] | 0.704 ± 0.021 | 0.483 ± 0.022
NTKHYNDTLLKQ [PHO11 C-terminal 12 aa] | 0.718 ± 0.0081 | 0.66 ± 0.0066
NDIFIPEQEHKQ [HPT1 C-terminal 12 aa] | 0.721 ± 0.011 | 0.674 ± 0.029
ESTHKEAMGEKN [MNN5 C-terminal 12 aa] | 0.648 ± 0.014 | 0.675 ± 0.016
KTHTEYGYVMVA [YGR137W C-terminal 12 aa] | 0.618 ± 0.012 | 0.5401 ± 0.0042
RTLGYSNNNGNN [UBX6 C-terminal 12 aa] | 0.679 ± 0.019 | 0.678 ± 0.0087
VHAENTTLREIL [CDC50 C-terminal 12 aa] | 0.706 ± 0.036 | 0.7076 ± 0.0047
ELQEKVEQLSKW [POL3 C-terminal 12 aa] | 0.7208 ± 0.00089 | 0.688 ± 0.026
LHPFREPAKINI [YDR048C C-terminal 12 aa] | 0.665 ± 0.024 | 0.701 ± 0.054
YRNIPESKPQGS [YIR021W-A C-terminal 12 aa] | 0.6812 ± 0.0038 | 0.6624 ± 0.0038
VDIPVDVKKLQI [BUL2 C-terminal 12 aa] | 0.723 ± 0.035 | 0.696 ± 0.018
KAALDRVENALA [IML2 C-terminal 12 aa] | 0.699 ± 0.02 | 0.676 ± 0.017
DDSKILIEHLSE [PET54 C-terminal 12 aa] | 0.697 ± 0.024 | 0.662 ± 0.04
GTVCYGMIEIFF [VTC5 C-terminal 12 aa] | 0.596 ± 0.009 | 0.616 ± 0.013
PHYKPRDGSQVE [SPT4 C-terminal 12 aa] | 0.69 ± 0.011 | 0.65 ± 0.0097
VFLELKKAQRWA [API2 C-terminal 12 aa] | 0.703 ± 0.019 | 0.686 ± 0.011
NTAGQKPTEYHY [APA2 C-terminal 12 aa] | 0.7199 ± 0.0016 | 0.702 ± 0.019
TPTDSTPTKKDI [LAC1 C-terminal 12 aa] | 0.6941 ± 0.0027 | 0.725 ± 0.019

Sequence | protein stability index [1] | protein stability index (genetic background: wild type)
YAYMLYYERVNK [UBP16 C-terminal 12 aa] | 0.675 ± 0.02 | 0.675 ± 0.041
HLQRCLSRGARR [SGF11 C-terminal 12 aa] | 0.698 ± 0.016 | 0.759 ± 0.039
ASNGVRLSEIGW [SNZ1 C-terminal 12 aa] | 0.699 ± 0.011 | 0.694 ± 0.027
TRKKGGRRGRRL [RPS14A C-terminal 12 aa] | 0.711 ± 0.011 | 0.676 ± 0.011
FVSHSRFFNRGT [VPS53 C-terminal 12 aa] | 0.684 ± 0.03 | 0.6958 ± 0.0033
SSKGFFSKLGCC [YCK2 C-terminal 12 aa] | 0.692 ± 0.0099 | 0.677 ± 0.011
QETAISVAKLFK [RPT6 C-terminal 12 aa] | 0.684 ± 0.007 | 0.7079 ± 0.007
LNIGGNLVTPLC [YSH1 C-terminal 12 aa] | 0.719 ± 0.011 | 0.671 ± 0.037
AVASFFLRNKRR [FIS1 C-terminal 12 aa] | 0.7073 ± 0.0052 | 0.69 ± 0.027
QTSGTFLHFSRP [YEL075W-A C-terminal 12 aa] | 0.712 ± 0.01 | 0.718 ± 0.062
LPSINTIFKDML [DOT6 C-terminal 12 aa] | 0.702 ± 0.03 | 0.731 ± 0.059
VNERSHDVKFTK [YIL165C C-terminal 12 aa] | 0.686 ± 0.006 | 0.689 ± 0.01
LIIRNLNAEKER [YFR056C C-terminal 12 aa] | 0.6974 ± 0.0041 | 0.686 ± 0.039
NGMWQKPEPGVS [YIL067C C-terminal 12 aa] | 0.691 ± 0.012 | 0.706 ± 0.028
SLRPQERNLYGL [NTH1 C-terminal 12 aa] | 0.691 ± 0.021 | 0.753 ± 0.095
VLYIILYYIILY [YGL024W C-terminal 12 aa] | 0.282 ± 0.02 | 0.181 ± 0.035
RQEEIKKRTALV [DPC25 C-terminal 12 aa] | 0.705 ± 0.0089 | 0.619 ± 0.022
DIIYFRAGAGKN [OLA1 C-terminal 12 aa] | 0.691 ± 0.017 | 0.6666 ± 0.0055
TANKVELMANIV [MAK31 C-terminal 12 aa] | 0.6683 ± 0.0035 | 0.686 ± 0.041

Source: the supplement of paper PMC10724198
